Values of other authors as cited in US12090208B2, “Peptide drug improvement using vitamin B12 and Haptocorrin binding substrate conjugates” (SYRACUSE UNIVERSITY, priority 2017, dated 2024).

Conditions: in vivo

B1: haptocorrin: serum B12 binding and transport protein (protein, UniProt P20061 24-433, looked up)
Transcobalamin-1: EICEVSEENYIRLKPLLNTMIQSNYNRGTSAVNVVLSLKLVGIQIQTLMQKMIQQIKYNVKSRLSDVSSGELALIILALGVCRNAEENLIYDYHLIDKLENKFQAEIENMEAHNGTPLTNYYQLSLDVLALCLFNGNYSTAEVVNHFTPENKNYYFGSQFSVDTGAMAVLALTCVKKSLINGQIKADEGSLKNISIYTKSLVEKILSEKKENGLIGNTFSTGEAMQALFVSSDYYNENDWNCQQTLNTVLTEISQGAFSNPNAAAQVLPALMGKTFLDINKDSSCVSASGNFNISADEPITVTPPDSQSYISVNYSVRINETYFTNVTVLNGSVFLSVMEKAQKMNDTIFGFTMEERSWGPYITCIQGLCANNNDRTYWELLSGGEPLSQGAGSYVVRNGENLEVRWSKY
With B1 as the molecule, how does the half-life in blood read?
Its half-life in blood is “approximately 10 hours”.
